# Experimental data: patent publication US20110158985A1 (published 2011)
# Residue numbers refer to the chain shown, from its start. Numbers in names are those of the source. Where “and” joins values, the source holds several entries; their conditions need not be identical. Equal entries are not always repeated. Where two headings read alike, the source gives them in different places.
# T1: RSV F glycoprotein (NUF4) (respiratory syncytial virus)
# T1 chain 1: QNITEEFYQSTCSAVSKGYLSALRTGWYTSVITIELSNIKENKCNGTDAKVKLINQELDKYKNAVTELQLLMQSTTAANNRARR
# T1 chain 2: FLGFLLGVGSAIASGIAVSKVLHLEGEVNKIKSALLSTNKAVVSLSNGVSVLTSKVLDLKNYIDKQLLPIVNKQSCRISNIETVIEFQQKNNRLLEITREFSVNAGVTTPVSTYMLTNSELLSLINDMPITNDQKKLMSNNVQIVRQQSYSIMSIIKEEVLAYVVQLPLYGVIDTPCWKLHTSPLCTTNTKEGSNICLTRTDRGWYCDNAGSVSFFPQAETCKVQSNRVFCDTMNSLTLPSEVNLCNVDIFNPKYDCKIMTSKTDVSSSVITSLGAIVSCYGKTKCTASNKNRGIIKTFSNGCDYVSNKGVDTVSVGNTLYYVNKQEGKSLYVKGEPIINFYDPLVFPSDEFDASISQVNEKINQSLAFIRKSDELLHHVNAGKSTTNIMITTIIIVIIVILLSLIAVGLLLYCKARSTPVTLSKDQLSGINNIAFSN
# B1: A1e9 IgG (antibody, V domains shown)
# VH: QVTLRESGPALVKPTQTLTLTCTFSGFSLSTAGMSVGWIRQPPGKALEWLADIWWDGKKHYNPSLKDRLTISKDTSKNQVVLKVTNMDPADTATYYCARDMIFNWYFDVWGQGTTVTVSS
# VL: DIQMTQSPSTLSASVGDRVTITCSLSSRVGYMHWYQQKPGKAPKLLIYDTFKLSSGVPSRFSGSGSGTEFTLTISSLQPDDFATYYCFQGSGYPFTFGGGTKVEIKR
# notes: also called Ale9
# B2: A8c7 IgG (antibody, V domains shown)
# VH: B1 VH with G57D, H60S
# VL: B1 VL with L25P, F51R, K52Y, L53Q
# B3: 1X-493L1FR Fab (Fab, V domains shown)
# VH: B1 VH with A32S, G57D, H60D, D67S, D100S, F103T
# VL: DIQMTQSPSTLSASVGDRVTITCSASSSVGYMHWYQQKPGKAPKLLIYDTSKLASGVPSRFSGSGSGTEFTLTISSLQPDDFATYYCFQGSGYPFTFGGGTKVEIK
# notes: also called IX-493L1FR
# B4: A3e2 Fab (Fab, V domains shown)
# VH: B1 VH with D56G, G57D, K59G
# VL: B3 VL with S51F, K52Y, A54H
# B5: A4b4 Fab (Fab, V domains shown)
# VH: B1 VH with G57D, W105F
# VL: B3 VL with S28R, S51F, K52F, A54D
# B6: A8c7 Fab (Fab, V domains shown)
# VH: B1 VH with G57D, H60S
# VL: B3 VL with A25P, S28R, S51R, K52Y, L53Q, A54S
# B7: A14a4 Fab (Fab, V domains shown)
# VH: B1 VH with G57D, H60S, F103T
# VL: B3 VL with S24L, A25L, S28R, S51Y, K52Y, L53Q, A54T
# B8: A16b4 Fab (Fab, V domains shown)
# VH: B1 VH with G57D
# VL: B3 VL with S24L, A25L, S28R, S51M, K52Y, L53Q
# B9: A17b5 Fab (Fab, V domains shown)
# VH: B1 VH with G57D
# VL: B3 VL with A25L, S28R, S51Y, K52Y, A54P
# B10: A17h4 Fab (Fab, V domains shown)
# VH: B1 VH
# VL: B3 VL with A25P, S51Y, K52Y
# B11: G93W Fab (Fab, name in Kabat numbering, V domains shown)
# VH: B1 VH with A32S, G57D, H60D, D67S, D100S, F103T
# VL: B3 VL with G92W
# B12: G93Y Fab (Fab, name in Kabat numbering, V domains shown)
# VH: B1 VH with A32S, G57D, H60D, D67S, D100S, F103T
# VL: B3 VL with G92Y
# B13: S52F Fab (Fab, name in Kabat numbering, V domains shown)
# VH: B1 VH with A32S, G57D, H60D, D67S, D100S, F103T
# VL: B3 VL with S51F
# B14: S52Y Fab (Fab, name in Kabat numbering, V domains shown)
# VH: B1 VH with A32S, G57D, H60D, D67S, D100S, F103T
# VL: B3 VL with S51Y
# B15: palivizumab Fab (papain cleavage of palivizumab IgG) (Fab, V domains shown)
# VH: B1 VH with A32S, G57D, H60D, D67S, D100S, F103T, Q112A
# VL: B3 VL with S24K, A25C, S26Q, S27L, V103L
# notes: also called Palivizumab^a
# B16: palivizumab Fab (recombinant) (Fab, V domains shown)
# VH: B1 VH with A32S, G57D, H60D, D67S, D100S, F103T, Q112A
# VL: B3 VL with S24K, A25C, S26Q, S27L, V103L
# B17: A17d4(1) Fab (Fab, V domains shown)
# VH: B1 VH with H60S, W105F
# VL: B3 VL with S24L, A25P, S28R, S51M, K52Y, L53Q, A54S
# B18: H3-3F4 Fab (Fab, V domains shown)
# VH: B1 VH with G57D, H60D, D67S
# VL: B3 VL with S51F
# B19: M3H9 Fab (Fab, V domains shown)
# VH: B1 VH with G57D, H60D, D67S
# VL: B3 VL with S51Y, L53Q, A54T
# B20: Y10H6 Fab (Fab, V domains shown)
# VH: B1 VH with G57D, H60D, D67S
# VL: B3 VL with S51R, K52Y, A54S
# B21: DG (aka D95/G93) Fab (Fab, V domains shown)
# VH: B1 VH with G57D, H60D, D67S, F103T, W105F
# VL: B3 VL with S51F
# B22: 6H8 Fab (Fab, V domains shown)
# VH: B1 VH with G57D, H60D, D67S, F103T, W105F
# VL: B3 VL with S51F, A54T
# B23: L1-7E5 Fab (Fab, V domains shown)
# VH: B1 VH with G57D, H60D, D67S, F103T, W105F
# VL: B3 VL with S28R, S51F
# B24: P12f4 Fab (Fab, V domains shown)
# VH: B1 VH with A32P, W105F
# VL: B3 VL with A25L, S28R, S51R, K52G, A54P
# Tests used:
# [1] = molecular target: Bac-F (respiratory syncytial virus); assay: SPR (BIAcore), mAb vs Bac-F (1:1)
# [2] = molecular target: T2, recombinant C-terminally truncated RSV (A2 strain) F protein (RSV (A2 strain), UniProt P03420 26-524); assay: SPR (BIAcore), IgG over immobilised F
# T2 construct: extracellular domain; also called truncated F protein; extracellular domain of the F protein from RSV A2
# [3] = molecular target: T1, RSV F glycoprotein (NUF4); assay: SPR (BIAcore), mAb vs NUF4 (1:1)
# [4] = molecular target: T3, F protein of RSV (Long strain) (RSV (Long strain), UniProt P12568 26-574); assay: cell-based or functional assay
# [5] = molecular target: T1, RSV F glycoprotein (NUF4); assay: SPR (BIAcore), mAb vs NUF4 (2:1)
# [6] = molecular target: T3, F protein of RSV (Long strain); assay: cell-based or functional assay; remark: listed apart in the source
# [7] = molecular target: T3, F protein of RSV (Long strain); assay: cell-based or functional assay; remark: listed apart in the source
# [8] = molecular target: T2, recombinant C-terminally truncated RSV …; assay: SPR (BIAcore), Fab over immobilised F
# [9] = molecular target: RSV F protein (purified) (respiratory syncytial virus); assay: SPR (BIAcore), F protein immobilised
# [10] = molecular target: T2, recombinant C-terminally truncated RSV …; assay: SPR (BIAcore), Fab over immobilised F; remark: listed apart in the source
binder,measurement,setting,value
B1,Kd,[1],0.33 nM
same,fold in parentheses (palivizumab = 1),[1],12 fold
same,Kd,[2],0.33 nM
same,koff,[2],0.000143 s⁻¹
same,kon,[2],433000 M⁻¹ s⁻¹
same,Kd,[3],0.69 nM
same,fold in parentheses (palivizumab = 1),[3],13 fold
same,koff,[3],0.000584 s⁻¹
same,kon,[3],843000 M⁻¹ s⁻¹
same,Mean IC50 (Control),[4],0.0645 µg/mL
same,Mean IC50 (Curve),[4],0.0625 µg/mL
same,Kd,[5],4.22 nM
same,fold in parentheses (palivizumab = 1),[5],74 fold
same,koff,[5],0.00139 s⁻¹
same,kon,[5],329000 M⁻¹ s⁻¹
same,"Microneutralization IC50, IgG",[6],0.0625 µg/ml and 0.42 nM
B2,Kd,[1],0.21 nM
same,fold in parentheses (palivizumab = 1),[1],19 fold
same,Kd,[2],0.21 nM
same,koff,[2],8.75e-05 s⁻¹
same,kon,[2],417000 M⁻¹ s⁻¹
same,Kd,[3],0.65 nM
same,fold in parentheses (palivizumab = 1),[3],13 fold
same,koff,[3],0.000535 s⁻¹
same,kon,[3],825000 M⁻¹ s⁻¹
same,Mean IC50 (Control),[4],0.0383 µg/mL
same,Mean IC50 (Curve),[4],0.0337 µg/mL
same,Kd,[5],2.65 nM
same,fold in parentheses (palivizumab = 1),[5],118 fold
same,koff,[5],0.00114 s⁻¹
same,kon,[5],430000 M⁻¹ s⁻¹
same,"Microneutralization IC50, IgG",[6],0.0337 µg/ml and 0.22 nM
B3,"Microneutralization IC50, Fab",[7],26.3 µg/ml and 526 nM
same,Kd,[8],3.52 nM
same,koff,[8],0.000651 s⁻¹
same,kon,[8],185000 M⁻¹ s⁻¹
same,koff,[9],0.00065 s⁻¹
same,kon,[9],185000 M⁻¹ s⁻¹
B4,Kd,[10],0.157 nM
same,koff,[10],9.4e-05 s⁻¹
same,kon,[10],599000 M⁻¹ s⁻¹
B5,Mean IC50 (Control),[4],0.0411 µg/mL
same,Mean IC50 (Curve),[4],0.0414 µg/mL
same,"Microneutralization IC50, Fab",[6],0.414 µg/ml and 0.83 nM
same,Kd,[10],0.086 nM
same,koff,[10],5.2e-05 s⁻¹
same,kon,[10],604000 M⁻¹ s⁻¹
B6,Mean IC50 (Control),[4],0.157 µg/mL
same,Mean IC50 (Curve),[4],0.177 µg/mL
same,"Microneutralization IC50, Fab",[6],0.177 µg/ml and 3.54 nM
same,Kd,[10],0.464 nM
same,koff,[10],0.0003 s⁻¹
same,kon,[10],647000 M⁻¹ s⁻¹
B7,"Microneutralization IC50, Fab",[6],> 0.4 µg/ml and > 8 nM
same,Kd,[10],0.723 nM
same,koff,[10],0.00024 s⁻¹
same,kon,[10],332000 M⁻¹ s⁻¹
B8,Kd,[10],0.214 nM
same,koff,[10],0.000105 s⁻¹
same,kon,[10],490000 M⁻¹ s⁻¹
B9,"Microneutralization IC50, Fab",[6],0.406 µg/ml and 0.92 nM
same,Kd,[10],0.124 nM
same,koff,[10],7.3e-05 s⁻¹
same,kon,[10],590000 M⁻¹ s⁻¹
B10,Kd,[10],0.202 nM
same,koff,[10],0.000105 s⁻¹
same,kon,[10],519000 M⁻¹ s⁻¹
B11,"Microneutralization IC50, Fab",[7],6.57 µg/ml and 131 nM
same,Kd,[8],0.93 nM
same,koff,[8],0.00014 s⁻¹
same,kon,[8],150000 M⁻¹ s⁻¹
B12,"Microneutralization IC50, Fab",[7],6.26 µg/ml and 125 nM
same,Kd,[8],0.94 nM
same,koff,[8],0.000153 s⁻¹
same,kon,[8],162000 M⁻¹ s⁻¹
B13,"Microneutralization IC50, Fab",[7],7.27 µg/ml and 1.45 µM
same,Kd,[8],0.85 nM
same,koff,[8],0.000175 s⁻¹
same,kon,[8],206000 M⁻¹ s⁻¹
B14,"Microneutralization IC50, Fab",[7],5.99 µg/ml and 120 nM
same,Kd,[8],0.74 nM
same,koff,[8],0.000125 s⁻¹
same,kon,[8],170000 M⁻¹ s⁻¹
B15,Kd,[8],6.07 nM
B16,"Microneutralization IC50, Fab",[7],27.5 µg/ml and 549 nM
same,Kd,[8],5.25 nM
same,"Microneutralization IC50, Fab",[6],27.5 µg/ml and 549 nM
same,Kd,[10],5.25 nM
B17,Mean IC50 (Control),[4],0.0171 µg/mL
same,Mean IC50 (Curve),[4],0.0179 µg/mL
same,"Microneutralization IC50, Fab",[6],0.0179 µg/ml and 0.36 nM
same,Kd,[10],0.111 nM
same,koff,[10],5.9e-05 s⁻¹
same,kon,[10],531000 M⁻¹ s⁻¹
B18,koff,[9],0.000445 s⁻¹ and 0.000402 s⁻¹
B19,koff,[9],0.000338 s⁻¹
same,kon,[9],605000 M⁻¹ s⁻¹
B20,koff,[9],0.000462 s⁻¹
same,kon,[9],757000 M⁻¹ s⁻¹
B21,koff,[9],0.000167 s⁻¹ and 0.000444 s⁻¹
B22,koff,[9],0.000178 s⁻¹ and 0.000473 s⁻¹
same,kon,[9],314000 M⁻¹ s⁻¹ and 444000 M⁻¹ s⁻¹
B23,koff,[9],0.000192 s⁻¹ and 0.000331 s⁻¹ and 0.000229 s⁻¹
B24,koff,[9],0.000299 s⁻¹
same,kon,[9],527000 M⁻¹ s⁻¹
